According to the supplement of paper PMC10567573:

B1: OAS1 (parent)
chain: LQLGEGVEFDVLPAFDALGQLTGG

Variants of: B1
Assay: protein stability index of a GFP-peptide fusion (GPS, HEK-293T) (PSI 1-6); higher = more stable
Conditions: c terminus: a fixed tail appended
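Also: lentivirally expressed fusions sorted by FACS into six bins by GFP to DsRed ratio, PSI derived from sequencing read proportions per bin multiplied by bin number.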

Row | Variant | protein stability index
1 | LQLGEGVEFDVLPTFDALGQLTGG | 2.34
2 | LQLGEGVEFDVLPRFDALGQLTGG | 1.29
3 | LQLGEGVEFDVLPYFDALGQLTGG | 1.53
4 | LQLGEGVEFDVLPAFDALGQLHGG | 2.06
5 | LQLGEGVEFDVLPAFDALGQLVGG | 1.86
6 | LQLGEGVEFDVLPAFDALGQLNGG | 1.49
7 | LQLGEGVEFDVLPAFDALGQLKGG | 2.04
8 | LQLGEGVEFDVLPAFDALGQLTGQ | 1.98
9 | LQLGEGVEFDVLPAFDALGQLTGT | 1.48
10 | LQLGEGVEFDVLPAFDALGQLTGI | 3.05
11 | LQLGEGVEFDVLPAFDALGQLTGK | 2.49
12 | LQLGEGVEFDVLPAFDALGQLTGW | 1.45
13 | LQLGVGVEFDVLPAFDALGQLTGG | 2.24
14 | LQLGKGVEFDVLPAFDALGQLTGG | 2.09
15 | LQLGDGVEFDVLPAFDALGQLTGG | 2.24
16 | LQLGLGVEFDVLPAFDALGQLTGG | 1.02
17 | LQLGEGVEFDRLPAFDALGQLTGG | 2.54
18 | LQLGEGVEFDILPAFDALGQLTGG | 1.49
19 | LQLGEGVEFDQLPAFDALGQLTGG | 3.62
20 | LQLGEGVEFDELPAFDALGQLTGG | 2.95
21 | LQLGEGVEFDTLPAFDALGQLTGG | 2.21
22 | LQLGEGVEFDVLPACDALGQLTGG | 1.86
23 | LQLGEGVEFDVLPAPDALGQLTGG | 3.45
24 | LQLGEGVEFDVLPADDALGQLTGG | 3.12

Row | Variant | protein stability index
25 | LQLGEGVEFDVLPAFDALGMLTGG | 1.82
26 | LQLGEGVEFDVLYAFDALGQLTGG | 2.03
27 | LQLGEGVEFDVLNAFDALGQLTGG | 2.69
28 | LQDGEGVEFDVLPAFDALGQLTGG | 2.98
29 | LQFGEGVEFDVLPAFDALGQLTGG | 2.08
30 | LQHGEGVEFDVLPAFDALGQLTGG | 4.17
31 | LQLGEYVEFDVLPAFDALGQLTGG | 1.3
32 | LQLGEAVEFDVLPAFDALGQLTGG | 1.53
33 | LQLGEMVEFDVLPAFDALGQLTGG | 2.01
34 | LQLGEDVEFDVLPAFDALGQLTGG | 1.88
35 | LQLGECVEFDVLPAFDALGQLTGG | 1.83
36 | LQLGEFVEFDVLPAFDALGQLTGG | 1.63
37 | LQLGEKVEFDVLPAFDALGQLTGG | 3
38 | LQLGEIVEFDVLPAFDALGQLTGG | 1.28
39 | LQLGEGVEFDVWPAFDALGQLTGG | 1.13
40 | LQLGEGVEFDVRPAFDALGQLTGG | 2.69
41 | LQLGEGVEFDVKPAFDALGQLTGG | 2.94
42 | LQLGEGVEFDVYPAFDALGQLTGG | 1.72
43 | LQLGEGVEFDVPPAFDALGQLTGG | 2.48
44 | LQLGEGVEFDVLPAFDALTQLTGG | 2.01
45 | LQLGEGVEFDVLPAFDALSQLTGG | 1.54
46 | LQLGEGVEFDVLPAFDALEQLTGG | 1.61
47 | LQLGEGVEFDVLPAFDALHQLTGG | 1.98
48 | LQLGEGVEFDVLPAFDALGQLTVG | 2.33

Row | Variant | protein stability index
49 | LQLGEGVEFDVLPAFDALGQLTRG | 2.68
50 | LQLGEGVEFDVLPAFDALGQLTHG | 1.58
51 | LQLGEGVEFDVLPAFDALGQLTDG | 2.13
52 | LQLGEGVEFDVLPAFDALGQLTYG | 1.34
53 | LQLGEGVEFDVLPAFDALGQLTFG | 1.51
54 | LQLGEGVEFDVLPAFDALGQLTMG | 1.13
55 | LQLGEGVEFDVLPAFIALGQLTGG | 3.52
56 | LQLGEGVEFDVLPAFTALGQLTGG | 1.99
57 | LQLGEGVEFDVLPAFQALGQLTGG | 2.29
58 | LQLGEGVEPDVLPAFDALGQLTGG | 3.64
59 | LQLGEGVECDVLPAFDALGQLTGG | 2.37
60 | LQLGEGVEIDVLPAFDALGQLTGG | 1.65
61 | LQLGEGVEMDVLPAFDALGQLTGG | 2.88
62 | LQLGEGVEFDVLPAFDTLGQLTGG | 2.6
63 | LQLGEGVEFDVLPAFDHLGQLTGG | 1.76
64 | LQLGEGVEFDVLPAFDPLGQLTGG | 2.41
65 | LQLGEGVEFDVLPAFDDLGQLTGG | 2.14
66 | LQLGEGVEFDVLPAFDATGQLTGG | 2.48
67 | LQLGEGVEFDVLPAFDAEGQLTGG | 3.1
68 | LQLGEGVEFDVLPAFDAYGQLTGG | 2.13
69 | LQLGEGVEFDVLPAFDALGQQTGG | 3.62
70 | LQLGEGVEFDVLPAFDALGQCTGG | 3.05
71 | LQLGEGVEFDVLPAFDALGQNTGG | 2.32
72 | LQLGEGVEFPVLPAFDALGQLTGG | 2.53

Row | Variant | protein stability index
73 | LQLGEGVEFVVLPAFDALGQLTGG | 2.77
74 | LQLGEGVEFQVLPAFDALGQLTGG | 1.8
75 | LQLGEGQEFDVLPAFDALGQLTGG | 2.86
76 | LQLGEGYEFDVLPAFDALGQLTGG | 1.55
77 | LQLGEGSEFDVLPAFDALGQLTGG | 2.11
78 | LQLGEGLEFDVLPAFDALGQLTGG | 3.26
79 | LQLGEGREFDVLPAFDALGQLTGG | 2.27
80 | MQLGEGVEFDVLPAFDALGQLTGG | 2.57
81 | FQLGEGVEFDVLPAFDALGQLTGG | 2.06
82 | CQLGEGVEFDVLPAFDALGQLTGG | 2.95
83 | LPLGEGVEFDVLPAFDALGQLTGG | 3.18
84 | LDLGEGVEFDVLPAFDALGQLTGG | 2.84
85 | LELGEGVEFDVLPAFDALGQLTGG | 3.58
86 | LTLGEGVEFDVLPAFDALGQLTGG | 1.61
87 | LMLGEGVEFDVLPAFDALGQLTGG | 3.19
88 | LQLNEGVEFDVLPAFDALGQLTGG | 2.16
89 | LQLSEGVEFDVLPAFDALGQLTGG | 1.4
90 | LQLTEGVEFDVLPAFDALGQLTGG | 2.28
91 | LQLPEGVEFDVLPAFDALGQLTGG | 2.36
92 | LQLGEGVDFDVLPAFDALGQLTGG | 2.54
93 | LQLGEGVSFDVLPAFDALGQLTGG | 1.99
94 | LQLGEGVYFDVLPAFDALGQLTGG | 2.67
